# Measurements published in patent US20130331550A1 (TECHNISCHE UNIVERSITAET MUENCHEN, published 2013).
# B1: recombinant Blc (Escherichia coli bacterial lipocalin, Cys1Ala/Cys113Ser, C-terminal Strep-tag II, as encoded on pBlc2) (other)
# chain: ASSPTPPRGVTVVNNFDAKRYLGTWYEIARFDHRFERGLEKVTATYSLRDDGGLNVINKGYNPDRGMWQQSEGKAYFTGAPTRAALKVSFFGPFYGGYNVIALDREYRHALVSGPDRDYLWILSRTPTISDEVKQEMLAVATREGFDVSKFIWVQQPGSAWSHPQFEK
# notes: The construct has 168 residues (159 + 9 tag residues)
# Biological target: the molecule itself
# Experiment: analytical size exclusion chromatography and analytical ultracentrifugation (sedimentation equilibrium); self-association (dimer) not seen
# Method: Bovine serum albumin (66 kDa, Vᵣ=9.861 ml), carbonic anhydrase (29 kDa, Vᵣ=12.35 ml), myoglobin (17.05 kDa, Vᵣ=13.244 ml), cytochrome C (12.4 kDa, Vᵣ=14.11 ml), and aprotinin (6.5 kDa, Vᵣ=16.35 ml) were used as protein size standards for calibration of the column while the void volume was determined with blue dextran (V₀=8.08 ml).
# Sedimentation equilibrium experiments were performed using an XL-I analytical ultracentrifuge and a Ti-60 rotor equipped with a UV/Vis as well as interference detector (Beckman, Fullerton, Calif.). An 0.8 mg/ml solution of the purified recombinant Blc in 150 mM NaCl, 1 mM EDTA, 100 M Tris/HCl pH 8.0 was applied to six-sector 12 mm path length cells. The samples were centrifuged at 25000 rpm for 72 h at 4° C., until equilibrium was reached, whereby the protein gradient was measured by UV absorption at 280 nm.
protein,measurement,value
B1,binding result,no binding (tested: about 40 µM)
